Key:
Test in all cases: cell-based or functional assay
NLK(h) (human) = molecular target: T1, NLK(h) (human) (UniProt Q9UBE8)
T1 sequence (looked up): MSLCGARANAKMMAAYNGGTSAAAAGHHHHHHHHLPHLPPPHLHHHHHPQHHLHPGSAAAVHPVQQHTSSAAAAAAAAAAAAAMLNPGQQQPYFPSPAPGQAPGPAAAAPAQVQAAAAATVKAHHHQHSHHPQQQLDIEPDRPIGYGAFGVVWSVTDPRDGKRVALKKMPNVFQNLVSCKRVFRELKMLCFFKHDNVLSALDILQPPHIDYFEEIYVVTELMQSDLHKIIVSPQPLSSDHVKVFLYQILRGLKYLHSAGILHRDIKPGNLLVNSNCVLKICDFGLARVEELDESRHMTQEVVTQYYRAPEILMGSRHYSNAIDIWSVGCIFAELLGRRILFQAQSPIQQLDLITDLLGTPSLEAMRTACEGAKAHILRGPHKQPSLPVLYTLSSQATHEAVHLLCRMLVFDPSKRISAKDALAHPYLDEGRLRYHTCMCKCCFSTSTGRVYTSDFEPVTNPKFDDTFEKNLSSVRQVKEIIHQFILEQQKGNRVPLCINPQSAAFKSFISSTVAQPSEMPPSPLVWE

ASK1(h) (human) = ASK1(h) (human) (UniProt Q99683)
ASK1(h) (human), sequence (Q99683 649-946 limits assumed): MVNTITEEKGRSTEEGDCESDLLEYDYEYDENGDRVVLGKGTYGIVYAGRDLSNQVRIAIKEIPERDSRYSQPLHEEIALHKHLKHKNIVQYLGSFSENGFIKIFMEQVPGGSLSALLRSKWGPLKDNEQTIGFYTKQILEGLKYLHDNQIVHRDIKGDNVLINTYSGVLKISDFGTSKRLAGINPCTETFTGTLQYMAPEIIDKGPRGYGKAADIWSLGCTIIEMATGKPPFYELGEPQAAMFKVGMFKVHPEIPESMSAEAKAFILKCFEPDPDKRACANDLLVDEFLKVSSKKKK

CSK(h) (human) = CSK(h) (human) (UniProt P41240)
CSK(h) (human), sequence (P41240 whole entry): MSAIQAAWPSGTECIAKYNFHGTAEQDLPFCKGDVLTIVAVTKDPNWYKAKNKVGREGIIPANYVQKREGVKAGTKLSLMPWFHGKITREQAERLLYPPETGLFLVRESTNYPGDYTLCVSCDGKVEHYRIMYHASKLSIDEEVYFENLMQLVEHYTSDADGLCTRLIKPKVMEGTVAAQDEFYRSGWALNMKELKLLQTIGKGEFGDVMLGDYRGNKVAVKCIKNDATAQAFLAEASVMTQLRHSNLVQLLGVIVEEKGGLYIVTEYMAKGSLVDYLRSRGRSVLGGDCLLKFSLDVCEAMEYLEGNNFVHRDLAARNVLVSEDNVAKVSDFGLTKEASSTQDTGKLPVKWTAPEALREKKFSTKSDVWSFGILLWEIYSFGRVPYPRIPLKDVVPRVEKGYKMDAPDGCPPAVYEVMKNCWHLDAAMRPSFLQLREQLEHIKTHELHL

PKD2(h) (human) = molecular target: T2, PKD2(h) (human) (UniProt Q9BZL6)
T2 sequence (looked up): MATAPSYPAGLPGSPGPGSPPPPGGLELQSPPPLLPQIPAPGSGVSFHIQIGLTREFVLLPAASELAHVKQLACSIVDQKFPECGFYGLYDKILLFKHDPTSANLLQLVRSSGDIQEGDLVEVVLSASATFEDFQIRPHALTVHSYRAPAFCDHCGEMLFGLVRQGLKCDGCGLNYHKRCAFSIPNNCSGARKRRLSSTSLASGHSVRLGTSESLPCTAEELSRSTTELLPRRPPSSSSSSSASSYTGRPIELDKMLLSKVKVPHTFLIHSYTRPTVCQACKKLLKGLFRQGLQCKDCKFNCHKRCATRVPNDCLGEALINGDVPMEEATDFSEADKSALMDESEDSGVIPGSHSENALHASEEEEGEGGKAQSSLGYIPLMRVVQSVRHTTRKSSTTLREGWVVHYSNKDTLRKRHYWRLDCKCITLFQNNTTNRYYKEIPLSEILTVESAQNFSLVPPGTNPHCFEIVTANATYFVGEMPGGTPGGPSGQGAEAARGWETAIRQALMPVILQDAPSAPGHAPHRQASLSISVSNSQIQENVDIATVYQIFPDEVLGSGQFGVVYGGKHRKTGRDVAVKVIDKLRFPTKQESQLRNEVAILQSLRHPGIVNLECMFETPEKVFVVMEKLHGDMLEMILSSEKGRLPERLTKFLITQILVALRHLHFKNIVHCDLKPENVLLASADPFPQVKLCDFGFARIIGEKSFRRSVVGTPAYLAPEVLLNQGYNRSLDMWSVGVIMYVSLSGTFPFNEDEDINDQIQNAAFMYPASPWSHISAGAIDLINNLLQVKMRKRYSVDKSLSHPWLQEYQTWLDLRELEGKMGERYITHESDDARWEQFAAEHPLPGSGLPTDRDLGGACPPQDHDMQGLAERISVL

PKCι(h) (human) = PKCι(h) (human) (UniProt P41743)
PKCι(h) (human), sequence (P41743 whole entry): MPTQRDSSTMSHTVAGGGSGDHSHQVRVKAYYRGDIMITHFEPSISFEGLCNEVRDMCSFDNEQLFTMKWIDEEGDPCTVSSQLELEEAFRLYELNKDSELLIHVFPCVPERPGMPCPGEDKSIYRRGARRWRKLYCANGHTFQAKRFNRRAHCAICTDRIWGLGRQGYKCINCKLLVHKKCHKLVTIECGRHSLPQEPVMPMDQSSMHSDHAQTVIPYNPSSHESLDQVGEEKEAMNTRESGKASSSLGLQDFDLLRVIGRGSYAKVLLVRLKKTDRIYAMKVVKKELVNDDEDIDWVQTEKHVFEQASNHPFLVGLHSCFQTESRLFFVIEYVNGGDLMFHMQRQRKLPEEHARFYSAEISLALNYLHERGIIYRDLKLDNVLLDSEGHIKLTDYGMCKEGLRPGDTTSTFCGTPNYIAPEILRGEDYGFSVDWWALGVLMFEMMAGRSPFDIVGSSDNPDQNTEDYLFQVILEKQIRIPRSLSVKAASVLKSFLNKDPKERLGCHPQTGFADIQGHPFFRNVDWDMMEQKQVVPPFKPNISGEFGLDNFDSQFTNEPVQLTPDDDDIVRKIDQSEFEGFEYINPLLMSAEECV

PDGFRα(D842V)(h) (human) = PDGFRα(D842V)(h) (human) (UniProt P16234)
PDGFRα(D842V)(h) (human), sequence (P16234 550-1089 D842V limits assumed): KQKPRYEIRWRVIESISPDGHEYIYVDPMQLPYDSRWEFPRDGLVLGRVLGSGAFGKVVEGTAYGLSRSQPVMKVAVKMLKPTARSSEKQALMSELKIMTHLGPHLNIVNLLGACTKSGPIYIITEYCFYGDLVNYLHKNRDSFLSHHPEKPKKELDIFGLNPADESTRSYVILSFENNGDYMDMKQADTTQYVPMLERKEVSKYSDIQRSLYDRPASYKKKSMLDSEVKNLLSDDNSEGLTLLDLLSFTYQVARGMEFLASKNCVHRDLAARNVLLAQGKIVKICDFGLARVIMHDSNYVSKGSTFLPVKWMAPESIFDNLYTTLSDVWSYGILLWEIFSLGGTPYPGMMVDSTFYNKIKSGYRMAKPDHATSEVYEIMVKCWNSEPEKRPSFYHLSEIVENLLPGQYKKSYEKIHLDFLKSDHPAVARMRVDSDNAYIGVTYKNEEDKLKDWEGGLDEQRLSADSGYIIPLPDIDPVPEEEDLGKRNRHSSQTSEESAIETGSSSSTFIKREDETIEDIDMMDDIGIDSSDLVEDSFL

EphA8(h) (human) = molecular target: T3, EphA8(h) (human) (UniProt P29322)
T3 sequence (looked up): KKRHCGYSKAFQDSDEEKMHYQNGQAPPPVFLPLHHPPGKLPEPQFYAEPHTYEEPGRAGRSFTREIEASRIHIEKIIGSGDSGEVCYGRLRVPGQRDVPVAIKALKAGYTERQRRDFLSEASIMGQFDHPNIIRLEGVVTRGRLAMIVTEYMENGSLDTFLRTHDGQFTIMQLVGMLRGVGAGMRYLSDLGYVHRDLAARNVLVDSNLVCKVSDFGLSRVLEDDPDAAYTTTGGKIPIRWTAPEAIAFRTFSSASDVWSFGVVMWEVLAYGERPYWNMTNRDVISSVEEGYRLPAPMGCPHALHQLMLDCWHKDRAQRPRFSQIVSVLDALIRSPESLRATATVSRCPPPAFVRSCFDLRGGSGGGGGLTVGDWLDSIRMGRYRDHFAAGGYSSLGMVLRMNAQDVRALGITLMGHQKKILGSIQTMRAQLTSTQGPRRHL

TAO2(h) (human) = molecular target: T4, TAO2(h) (human) (UniProt Q9UL54)
T4 sequence (looked up): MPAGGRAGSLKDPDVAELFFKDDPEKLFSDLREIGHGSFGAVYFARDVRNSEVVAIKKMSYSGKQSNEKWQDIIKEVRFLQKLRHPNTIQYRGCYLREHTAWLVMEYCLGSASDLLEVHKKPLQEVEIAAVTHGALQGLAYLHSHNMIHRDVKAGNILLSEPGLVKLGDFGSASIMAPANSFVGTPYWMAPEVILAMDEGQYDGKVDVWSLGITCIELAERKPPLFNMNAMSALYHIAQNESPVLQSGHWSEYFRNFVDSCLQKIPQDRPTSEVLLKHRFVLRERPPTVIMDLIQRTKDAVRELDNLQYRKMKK

PhKγ2(h) (human) = molecular target: T5, PhKγ2(h) (human) (UniProt P15735)
T5 sequence (looked up): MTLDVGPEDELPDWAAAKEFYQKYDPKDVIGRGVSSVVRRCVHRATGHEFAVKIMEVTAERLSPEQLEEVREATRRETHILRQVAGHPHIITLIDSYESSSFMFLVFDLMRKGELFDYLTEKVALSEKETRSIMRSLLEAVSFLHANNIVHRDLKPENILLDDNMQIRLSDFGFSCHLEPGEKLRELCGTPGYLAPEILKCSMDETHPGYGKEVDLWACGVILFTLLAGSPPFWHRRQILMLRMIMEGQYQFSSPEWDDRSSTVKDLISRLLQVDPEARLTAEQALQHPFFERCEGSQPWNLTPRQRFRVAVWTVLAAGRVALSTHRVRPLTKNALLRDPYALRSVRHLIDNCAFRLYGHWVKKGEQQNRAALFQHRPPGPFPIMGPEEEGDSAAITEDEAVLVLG

For MMI-0500 (peptide), the % activity, 100 µM (NLK(h) (human)) was 19%, the % activity, 100 µM (ASK1(h) (human)) was -4% and the % activity, 100 µM (CSK(h) (human)) was 2%. The % activity, 100 µM (PKD2(h) (human)) was 10%, the % activity, 100 µM (PKCι(h) (human)) was 7% and the % activity, 100 µM (PDGFRα(D842V)(h) (human)) was 170%. The % activity, 100 µM (EphA8(h) (human)) was 337%, the % activity, 100 µM (TAO2(h) (human)) was 15% and the % activity, 100 µM (PhKγ2(h) (human)) was 16%.
